Data as given in US20050106177A1.

Key:
Experiment in all cases: cell-based or functional assay
[1] = target: ADA envelope glycoproteins on recombinant HIV-1 (HIV-1, primary isolate ADA)
[2] = target: HXBc2 envelope glycoproteins on recombinant HIV-1 (HIV-1, TCLA strain HXBc2) (UniProt P04578)
[3] = target: YU2 envelope glycoproteins on recombinant HIV-1 (HIV-1, primary isolate YU2) (UniProt P35961)
UniProt P35961, sequence (P35961 32-843): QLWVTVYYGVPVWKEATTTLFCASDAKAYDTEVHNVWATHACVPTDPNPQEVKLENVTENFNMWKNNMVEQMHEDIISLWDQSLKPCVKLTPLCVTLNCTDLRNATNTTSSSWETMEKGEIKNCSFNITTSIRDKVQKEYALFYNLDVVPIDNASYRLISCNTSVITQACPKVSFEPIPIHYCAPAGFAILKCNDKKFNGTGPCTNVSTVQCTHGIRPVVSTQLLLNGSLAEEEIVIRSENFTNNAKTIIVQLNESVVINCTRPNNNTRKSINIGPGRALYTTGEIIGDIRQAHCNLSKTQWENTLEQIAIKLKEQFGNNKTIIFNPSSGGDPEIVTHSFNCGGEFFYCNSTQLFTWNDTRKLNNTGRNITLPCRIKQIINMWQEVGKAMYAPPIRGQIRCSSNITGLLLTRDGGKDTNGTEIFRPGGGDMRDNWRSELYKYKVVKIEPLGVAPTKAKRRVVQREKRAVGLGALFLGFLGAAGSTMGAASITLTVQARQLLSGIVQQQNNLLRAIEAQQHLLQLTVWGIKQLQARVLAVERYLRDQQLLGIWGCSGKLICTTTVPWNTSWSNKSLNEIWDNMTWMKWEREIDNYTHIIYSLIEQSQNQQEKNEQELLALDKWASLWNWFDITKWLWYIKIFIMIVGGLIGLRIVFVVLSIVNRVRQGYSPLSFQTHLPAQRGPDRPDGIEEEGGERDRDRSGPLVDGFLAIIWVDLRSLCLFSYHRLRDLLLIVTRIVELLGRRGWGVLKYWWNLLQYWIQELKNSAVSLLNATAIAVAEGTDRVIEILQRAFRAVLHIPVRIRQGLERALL

Substance: IgG1b12 antibody
- 50% neutralization of recombinant virus, single-round luciferase entry assay (:g/ml (so in the source); symbol garbled)) [1]: 2.5
- 90% neutralization of recombinant virus, single-round luciferase entry assay (:g/ml (so in the source); symbol garbled)) [1]: > 10
- 90% neutralization of recombinant virus, single-round luciferase entry assay (g/ml (so in the source); symbol garbled)) [2]: 1.25
- 50% neutralization of recombinant virus, single-round luciferase entry assay (:g/ml (so in the source); symbol garbled)) [3]: 5
- 90% neutralization of recombinant virus, single-round luciferase entry assay (:g/ml (so in the source); symbol garbled)) [3]: > 20
